These results are taken from patent US20240060046A1.

This test has as its target CD20 on CD20+ human Burkitt's lymphoma cell lines (Ramos, Raji) (human) (UniProt P11836). The test is described as follows: cell-based or functional assay.
UniProt P11836, sequence (P11836 whole entry): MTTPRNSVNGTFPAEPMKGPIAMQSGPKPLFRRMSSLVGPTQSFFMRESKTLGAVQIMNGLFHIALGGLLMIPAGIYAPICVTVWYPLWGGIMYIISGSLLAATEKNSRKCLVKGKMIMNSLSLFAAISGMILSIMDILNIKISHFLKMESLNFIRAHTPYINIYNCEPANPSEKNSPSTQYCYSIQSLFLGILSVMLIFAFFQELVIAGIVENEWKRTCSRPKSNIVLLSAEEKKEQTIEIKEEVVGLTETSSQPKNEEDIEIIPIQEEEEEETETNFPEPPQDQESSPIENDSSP

As to “Rituximab (Mabthera or Rituxan) (antibody)”, the Viable Raji cells (%), long-term ADCC, AB-101 + RTX, 24 hrs (mean of 9 AB-101 batches) is 23.9%; the Viable Raji cells (%), long-term ADCC, AB-101 + RTX, 48 hrs (mean of 9 AB-101 batches) was 11.7%; the Viable Raji cells (%), long-term ADCC, AB-101 + RTX, 72 hrs (mean of 9 AB-101 batches) stood at 10.1%; the Viable Ramos cells (%), long-term ADCC, AB-101 + RTX, 24 hrs (mean of 9 AB-101 batches) came out at 47.6%. Also, the Viable Ramos cells (%), long-term ADCC, AB-101 + RTX, 48 hrs (mean of 9 AB-101 batches) came out at 28.1%; the Viable Ramos cells (%), long-term ADCC, AB-101 + RTX, 72 hrs (mean of 9 AB-101 batches) is 19%; the lysis of Raji target cells at the end of 72 hour co-culture, AB-101 combined with rituximab, E:T 1:1 was 90%; the lysis of Ramos target cells at the end of 72 hrs co-culture, AB-101 combined with rituximab, E:T 1:1 is 80%.
